Laboratory results as given in the RNAGym collection of RNA variant scans (doi:10.1073/pnas.2313332121).

B1: TPR t1 (parent)
chain: GACCAAUCUGCCCUCAGAGCUCGAGAACAUCUUCGGAUGCAGAGGAGGCAGGCUUCGGUGGCGCGAUAGCGCCAACGUCCUCAACCUCCAAUGCAUCCCACCACAUGAUGAUGCCUGAAGAGCCUUGGUUUUUUG

Variants of: B1
Test: polymerase ribozyme fitness, log enrichment relative to wild type (log ratio); higher = more active; in vitro selection for triplet polymerase activity
In short: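 Each subunit of a heterodimeric triplet polymerase ribozyme was mutagenized into a library by PCR, transcribed, and subjected to one round of in vitro selection, run in triplicate. Libraries were annealed with a biotinylated primer, the partner subunit and triplets, incubated frozen at −7 °C, and extended constructs were gel-excised, captured on streptavidin beads and recovered by RT-PCR. Input and output libraries were sequenced on Illumina, keeping genotypes with ≥10 input reads and ≥1 read per output. Fitness is log base 2 of genotype enrichment divided by wild-type enrichment, from inverse-variance-weighted replicate averages.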

Point of comparison: GGCCAAUCUGCCCUCAGAGCUCGAGAACAUCUUCGGAUGCAGAGGAGGCAGGCUUCGGUGGCGCGAUAGCGCCAACAUCCUCAACCUCCAAUGCAUCCCACAACAUGAUGAUGCCUGAAGAGGCUUGCUUUUUUG, “polymerase ribozyme fitness (log ratio)” value -3.09. Against it:
- GUCCCAUCUGCCCUCAGAGCUCGAGAACAUCUUCGGAUGCAGAGGAGGCAGGCUUCGGUGGCCCGAUAGCGCCAACGUCCUCAACCUCCAAUGCAUCCCACCACAUGAUGAUGCCUGAAGAGCCUUGGUUUUUUG — lower, -3.31
- GUCCAAUCUGCCCUCGGAGCUCGAGAUCAUCUUCGGAUGCAGAGGGGGCAGGCUUCGGUUGCGCGAUAGCGCCAACGUCCUCAACCUCCAAUGCAUCCCACCACAAGAUAAUGCCUGAAGAGCCUUGGUUUUUUG — lower, -5.21
- GGCCAAUCUGCCCUCAGAGCUCGAGAACAUCUUCGGAUGCAGAGGAGGCAGGCUUCGGUGGCGCGAUAGCGCCAACGUCCUCAACCUCCAAUGCAUCCUAACACAUGAUGAUGCCUGAAGGGCGUUGGUUUUUUG — higher, -2.5
- GGCCAAUCCGCCCUCAGAGCUCGAGAACAUCUUCGGAUGCAGAGGAGGCAGGCUUCGGUGGCGCGAUACCGCCAACGUCCUCAACCUCCAAUGCAUCCCACCACAUGAUGAUGCCUGAAGAGCCUUGGUUUUUUG — higher, -0.585
- GGCCAAUCUGCCCUCAGAGCUCGAGAACAUCUUCGGAUGCAGAGGAGGCAGGCUUCGGUGGCGCGAUAGCGCCAACGUCCUCAACCACCAAUGCAUCCCACCACAUGAUGAAGCCUGAAGAGCCUUGGUUUUUUG — higher, 1.3
- GUCCAAUCUGCCCUCAGAGCUCGAGAACAUCUUCGGAUGCAGUGGAGGCAGGCUUCGGUGGCGCGAUAGCGCCAACGUCCUCAACCUCCAAUGCAUCCCACCACAUGAUGAUGCCUGAAGAGCCUUGGUUUUUUG — lower, -3.48
- GGCCAAUCUGCCCUCAGAGCUCGAGAACAUCUUAGGAUGCAGAGGAGGCAGGCUACGGUGGCGCGAUAGCGCCAACGUCCUCAACCUCCAAUGCAUCCCACCACAUGAUGACGCCUGAAGAGCCUUGGUUUUUUG — higher, -0.554
- GUCCAAUCUGCCCUCAGAGCUCGAGAACAUCUUCGGUUGCAGAGGAGGCAGGCUUCGGUGGCGCGAUAGCGACAACGACCUCAACCUCCAAUGCAUCCCACCACAUGAUGAUGCCUGAAGAGCGUUGGUUUUUUG — higher, -0.247
- GGCCAAUCUGCCCUCAGAGCUCGAGAACAUCUUCGGAUGCAGAGGAGGCAGGCUUCGGUGGCGCGAUAGCGCCAACGUCCUCAACCUCCAAUGCAUCCCACCAUAUGAUGAUGCCUGAAGAGCCUUGGUUUUUUG — higher, 0.0974
- GGCCAAUCUGCCCUCAGAGCUCGAGAACAUCUUCGGAUGCAGAGGAGGCAAGCUUCGGUGGCGCGAUAGCGCCAACGUCCUCAACCUCCAAUGCAUCCCACCACAUGAUGAUGCCUGAAGAGCCUUGGUUUUUUG — within 0.2 log units, -2.94
- GGCCAAUCUGCCCUCAGAGCUCGAGAACAUCUUCGGAUGCAGAGGAGGCAGGCUUCGGUGGCGCGAUAGCGCCAACGUCCUCAACCUGCAAUGCAUCCCACCACAUGAUGAUCCCUGAAGAGCCUUGAGUUUUUG — lower, -5.6
- GGCCAAUCUGCCCUCAGAGCUCGAGAACAUCUUCGGAGGCAUAGGAGGCAGGCUUCGGUGUCGCGAUAGCGCUAACGUCCUCAACCUCCAAUGCAUCCCACCACAUGAUGAUGCUUGAAGAGCCUUGGUUUUUUG — lower, -3.74
- GGCCAAUCUGCCCUCAGAGCUCGAGAACAUCUUCGGAUGCAGAGGAGGCAGGCUUUGGUGGCGCGAUAGCGCCAACGUCCUCAACCUCCAAUGCAUCCCACCACAUGAUGAUGCCUGAAGAGCCUUGGUUUUUUG — higher, 0.13
- GGCCAAUCUGCCCUCAGAGCUCGAGAACAUCUUCGGAUGCAGAGGAGGCAGGCUUGGGUGGCGCGAUAGCGCCAACGUCCUCAACCUCCAAUGCAUCCCACCACAUGAUGAUGCCUGAAGAGCCUUGGUUUUUUG — higher, -1.69
- GGCCAAUCUGCCCACAGAGCUCGAGAACAUCUUCGGAUGCAGAGGAGGCAGGCUUCGGUGGAGCGAUAGCGCCAACGUCCUCAACCUCCAAUGCAUCCCACCACAUGAUGAUGCCUGAAGAGCCUUGGUUUUUUG — lower, -3.69
- GUCCAAUCUGCCCUCAGAGCUCGAGAACAUCUUCGGCUGCAGAAGAGGCAGGAUUCGGUGGCCCGAUAGCGCCAACGUCCUCAACCUCCAAUGCAUCCCACCACAUGAUGAUGCCUGAAGAGCAUUGGUUUUUUG — lower, -3.55
- GGCCAAUCUGCCCUCAGAGCUCGAGAACAUCUUCGGAUGCAGAGGAGGCAGGCUUCGGUAGCGCGAUAGCGCCAACGUCCUCAACCUCCAAUGCAUCCCACCACAUGAUGAUGCCUGAAGAGCCUUGGUUUUUUG — higher, -0.122
- GGCCAAUCUGCCCUCAGAGCUCGAGAACAUCUUCGGAUUCAGAGGAGGCAGGCUUCGGUGGCGCGAUAGCGCCAACGUCCUCAACCUCCAAUGCAUCCCACCACAUGAUGAUGCAUGAAGAGCCUUGGUUUUUUG — higher, -1.93
- GUCCGAUCUGCUCUCAGAGCUCGAGAACAUCUUCGGAUGCAGAGGAGGCAGGCUUCGGUGACGCGAUAGCGCCAACGUCCUCAACCUCCAAUGCAUCCCACCACAUGAUGAGGCCUGAAGAGCCUUGGUUUUUUG — higher, -2.18
- GGCCAAUCUGCCCUCAGAGCUCGAGAACAUCUUCGAAUGCAGAGGAGGGAGGCUUCGGUGUCGCGAUAGCGCCAACGUCCUCUACCUCCAAUGCAUCCCACCACAUGAUUAUGCCUGAAGAGCCUUGGCUUUUUG — lower, -4.82
